Laboratory results as given in US20250326826A1 (CENTRO DE INGENIER A GEN TICA Y BIOTECNOLOG A, published 2025).

Legend:
GST-mVEGF120 = molecular target: T1, GST-mVEGF120 (mouse, UniProt Q00731-3 27-146); test: ELISA, coated GST-mVEGF120
T1 construct: Produced in E. coli; also called mouse VEGF; mouse growth factor; not shown: glutathione S-transferase (GST) fusion partner
T1 sequence (looked up): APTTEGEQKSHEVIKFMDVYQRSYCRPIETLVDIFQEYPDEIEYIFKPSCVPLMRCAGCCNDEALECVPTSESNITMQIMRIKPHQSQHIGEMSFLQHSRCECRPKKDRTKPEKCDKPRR
Description: (§1) The 96-well plates were coated with 100 μL/well of a solution of GST-hVEGF121, GST-mVEGF120, or GST at a concentration of 20 μg/mL, or with a solution of VEGFKDR- at a concentration of 10 μg/mL, or hFGF-2 or mFGF-2 at a concentration of 5 μg/mL in 1×PBS for 16 hours at 4° C. After the plates were blocked with PBS-5% skim milk for one hour, 1:2 serial dilutions of the purified VHHs were added, starting at 2 μg/mL in PBS-0.5% skim milk. The plates were incubated for 1 hour at 37° C. and after several washes, the monoclonal antibody 9E10, specific for c-myc, was added. After one hour of incubation at 25° C. the plates were washed thoroughly. The binding of the fragment to the antigen in the solid phase was detected by the peroxidase activity using 100 μL/well of TMB. The reaction was stopped with 50 μL/well of stop solution, and absorbance values at 450 nm were determined in a microtiter plate reader.
(§2) The main characteristic of an antibody and its derived fragments is their recognition of the antigen, which determines their specificity and affinity. Specific binding to VEGF was evaluated as described in the section “ELISA for VHHs recognition of their target antigen” (Example 1). […] Nb-V1 also recognized a mutated variant of VEGF121 in the ELISA system where, in the so-called 80's loop, amino acids R82, K84 and H86 are replaced by E82, E84 and E86. […]

[1] = molecular target: bFGF (soluble stimulus added to cell cultures); test: cell-based or functional assay
[2] = molecular target: VEGF (soluble stimulus added to cell cultures); test: cell-based or functional assay
[3] = molecular target: VEGF (soluble stimulus added to cell cultures); test: cell-based or functional assay; remark: listed apart in the source
[4] = molecular target: T2, CHO-VEGF (hVEGF121 produced in the CHO cell line) (human, UniProt P15692-9 27-147); test: competition ELISA, coated CHO hVEGF121, competitor biotinylated Bevacizumab
T2 construct: any tag is not described
T2 sequence (looked up): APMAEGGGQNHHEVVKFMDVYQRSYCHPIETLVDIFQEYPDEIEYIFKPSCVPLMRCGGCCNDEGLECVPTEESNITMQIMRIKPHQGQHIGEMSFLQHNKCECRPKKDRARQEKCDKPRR
Description: (§3) Their displacement from their binding to VEGF could be an indication of the potentiality of the new polypeptides to mediate the desired effects in vivo. The ability of anti-VEGF VHH to compete with Bevacizumab antibody and CIGB166a antibody fragment for binding to its ligand was assessed by a variation of the solid phase ligand competition ELISA as described. 96-well plates (NUNC, Germany) were coated with 1 μg/mL hVEGF121, produced in the CHO cell line. Serial dilutions of purified VHHs were added, from 15,000 nM to 1,200 nM.
(§4) Biotinylated Bevacizumab or biotinylated-CIGB166a were then added, diluted in blocking solution to a final concentration of 2.3 ng/mL and 14.3 ng/ml, respectively. To detect the binding of biotinylated antibodies, streptavidin conjugated to HRP was added. The wells incubated with Biotinylated Bevacizumab or biotinylated-CIGB166a, without the addition of the antibody fragments, were taken as reference of maximum binding in the absence of competitor. In this assay, the Fc-VEGFR2 receptor chimera was used as a positive control. The percentage of inhibition of the binding of Bevacizumab, CIGB166a or VEGFR2 to its ligand was calculated as described above in the Example 1.

[5] = molecular target: Human VEGF (dendritic cell assay) (human, UniProt P15692-4 27-191, limits assumed); test: cell-based or functional assay
GST-hVEGF121 [6] = molecular target: T3, GST-hVEGF121 (human, UniProt P15692-9 27-147); test: ELISA, coated GST-hVEGF
T3 construct: plate coating of the VEGF ELISAs; also called human VEGF; not shown: glutathione S-transferase (GST) fusion partner
T3 sequence (looked up): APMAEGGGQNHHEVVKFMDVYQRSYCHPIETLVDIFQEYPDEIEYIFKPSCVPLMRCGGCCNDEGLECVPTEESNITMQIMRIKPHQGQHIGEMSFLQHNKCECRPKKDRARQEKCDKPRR
Description: as §1

GST-hVEGF121 [7] = molecular target: T3, GST-hVEGF121; test: competition ELISA, coated GST-hVEGF, competitor Fc-VEGFR2
Description: (§5) The ability of VHHs to hinder receptors for binding to their ligand was assessed by ELISA, for which 96-well plates (NUNC, USA) were coated with GST-hVEGF or bFGF and blocked as described in the previous section. Serial 1:2 dilutions of the purified VHHs, from […] to […], were added and the plates and incubated for 1 h at 37° C. In this step, some wells were left where only PBS-milk was added. […] After 45 min incubation at 37° C., plates were washed with PBS-0.05% Tween. To detect receptor binding, HRP-conjugated anti-human IgG antibody was added, diluted 1:5000 in PBS-0.5% milk. After incubation for 1 h at 37° C., the plates were washed with PBS-Tween, and TMB was added. The reaction was stopped after 10 min. Wells incubated with the receptors without the addition of the antibody fragments were taken as reference for maximum binding in the absence of competitor. In this assay, in the case of inhibition of the VEGF/VEGFR axis, the CIGB166a antibody fragment was used as a positive control, and an anti-FGF polyclonal antibody was used for the FGF/FGFR axis. The percentage of inhibition of receptor binding to its ligand was calculated as follows: […]
The biological effect of VEGF is a consequence of its binding to two fundamental receptors (VEGFR1 and VEGFR2), so for a polypeptide that binds to VEGF to be effective in the therapeutic setting, it must block these interactions (Shibuya, Cell Structure and Function, 2001: 26: 25-35). The ability of Nb-V1 to compete with receptors 1 and 2 for binding to its ligand (VEGF) was assessed by solid phase ligand competition ELISA, as described above.

Recombinant human bFGF [8] = molecular target: T4, Recombinant human bFGF (human, UniProt P09038 143-288, limits assumed); test: ELISA, coated antigen
T4 construct: Bought (Sigma); also called hFGF-2; human basic fibroblast growth factor
Description: (§6) After one hour of incubation at 25° C. the plates were washed thoroughly. The binding of the fragment to the antigen in the solid phase was detected by the peroxidase activity using 100 μL/well of TMB. The reaction was stopped with 50 μL/well of stop solution, and absorbance values at 450 nm were determined in a microtiter plate reader.
(§7) The main characteristic of an antibody and its derived fragments is their recognition of the antigen, which determines their specificity and affinity. Specific binding to VEGF was evaluated as described in the section “ELISA for VHHs recognition of their target antigen” (Example 1). […] Nb-V1 also recognized a mutated variant of VEGF121 in the ELISA system where, in the so-called 80's loop, amino acids R82, K84 and H86 are replaced by E82, E84 and E86. It shares this property with CIGB166a, but differentiates it from Bevacizumab.
(§8) Specific binding to bFGF was evaluated as described in the bFGF recognition ELISAs of the Example 1.

[9] = molecular target: T2, CHO-VEGF (hVEGF121 produced in the CHO …); test: competition ELISA, coated CHO hVEGF121, competitor biotinylated CIGB166a
Description: as §3, §4

GST-hVEGF121 [10] = molecular target: T3, GST-hVEGF121; test: ELISA, coated GST-hVEGF121
Description: as §1, §2

GST-hVEGF121 [11] = molecular target: T3, GST-hVEGF121; test: ELISA, coated GST-hVEGF121, detection with anti-c-myc 9E10
Description: as §1, §2

Recombinant human bFGF [12] = molecular target: T4, Recombinant human bFGF; test: ELISA, coated human bFGF
Description: as §1
SEQ ID NO: 18 and SEQ ID NO: 19, and the bivalent Nb-VV6 and Nb-FF2, with sequences identified as SEQ ID NO: 20 and SEQ ID NO: 21, were expressed and purified as described in the Example 1. In all cases, the purity and identity of the proteins were verified by SDS-PAGE 12% and anti-polyhistidine Western Blot. […] The experimental mass of the polypeptides and the arrangement of the disulfide bridges were checked by ESI/MS-MS. The experimental and theoretical mass, for each polypeptide coincided, with errors less than 0.0015% in all cases, and the formation of intramolecular bridges between C22-C101 and C168-C247 was verified. […] The biological activity of the polypeptides was evaluated by ELISA for recognition of the VEGF and bFGF antigens, and by their ability to displace VEGF and bFGF binding to their respective VEGFR2 and FGFR1 receptors. […] Similarly, it was shown that the ability to displace the binding of antigens by their receptors was not affected.

Recombinant human bFGF [13] = molecular target: T4, Recombinant human bFGF; test: competition ELISA, coated bFGF, competitor Fc-FGFR1
Description: as §5

Recombinant human bFGF [14] = molecular target: T4, Recombinant human bFGF; test: ELISA, coated human bFGF; remark: listed apart in the source
Description: as §1
(§9) Specific binding to bFGF was evaluated as described in the bFGF recognition ELISAs of the Example 1. […] As in the case of Nb-V1, no recognition of GST or VEGF proteins was observed, thus reinforcing the evidence of the specificity of the binding of the Nb-F3 fragment to its antigen.

GST-hVEGF121 [15] = molecular target: T3, GST-hVEGF121; test: ELISA, coated antigen
Description: as §6, §7, §8

Mouse bFGF = molecular target: T5, Mouse bFGF (mouse, UniProt P15655 10-154, limits assumed); test: ELISA, coated mouse bFGF
T5 construct: Bought (SinoBiological); also called mFGF-2
Description: as §1, §9

Sequence of VEGF (soluble stimulus added to cell cultures) (P15692 whole entry): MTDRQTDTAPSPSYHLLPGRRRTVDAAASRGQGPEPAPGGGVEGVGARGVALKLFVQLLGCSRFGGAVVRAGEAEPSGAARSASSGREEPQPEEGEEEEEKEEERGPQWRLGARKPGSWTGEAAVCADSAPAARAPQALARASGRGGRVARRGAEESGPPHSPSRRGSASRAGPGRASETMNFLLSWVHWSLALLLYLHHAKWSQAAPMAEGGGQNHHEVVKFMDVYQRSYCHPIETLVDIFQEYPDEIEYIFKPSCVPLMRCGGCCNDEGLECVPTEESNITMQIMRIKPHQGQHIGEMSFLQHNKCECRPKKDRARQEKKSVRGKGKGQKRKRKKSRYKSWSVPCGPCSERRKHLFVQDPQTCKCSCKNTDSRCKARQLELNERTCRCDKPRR
T4 sequence (P09038 143-288 limits assumed): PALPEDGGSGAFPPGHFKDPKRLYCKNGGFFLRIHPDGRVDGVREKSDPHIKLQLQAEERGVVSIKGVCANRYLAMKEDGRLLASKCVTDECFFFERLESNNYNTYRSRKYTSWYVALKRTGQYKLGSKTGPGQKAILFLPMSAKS
T5 sequence (P15655 10-154 limits assumed): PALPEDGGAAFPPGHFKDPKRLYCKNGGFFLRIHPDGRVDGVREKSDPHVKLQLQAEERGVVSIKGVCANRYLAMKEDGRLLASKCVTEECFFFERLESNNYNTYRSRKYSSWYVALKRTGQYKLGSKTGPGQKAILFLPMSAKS

B1: Nb-V1 (VHH)
VHH: QVQLVESGGGLVQPGGSLRLSCAASGNSAEDRLYNSYTWFRQAPGQGLEAVAAISSHFSAGLTYYADSVKGRFTISRDNSKNTLYLQMNSLRAEDTAVYYCEITSHASHNDAWSTPRTVWGQGTLVTVSS
notes: carries the C-terminal c-myc tracer peptide and histidine tag; also called VHH Nb-V1
GST-mVEGF120
  EC50: 0.00408 µM
[1]
  IC50, proliferation of HDMEC cells +bFGF (10 ng/ml): > 6 µM
[2]
  IC50, proliferation of HDMEC cells +VEGF (5 ng/ml): 0.116 µM
[3]
  PD1 expression (%) in CD8+ cells treated with VEGF, VHH 1 µg/mL: 64%
  PD1 expression (%) in CD8+ cells treated with VEGF, VHH 5 µg/mL: 58%
  PD1 expression (%) in CD8+ cells treated with VEGF, VHH 10 µg/mL: 38%
[4]
  IC50: 0.931 µM
[5]
  CD86 (MFI) on dendritic cells +VEGF +LPS, VHH 1 µg/mL: 1560 MFI
  CD86 (MFI) on dendritic cells +VEGF +LPS, VHH 5 µg/mL: 3000 MFI
  CD86 (MFI) on dendritic cells +VEGF +LPS, VHH 10 µg/mL: 17200 MFI
  MHCII (MFI) on dendritic cells +VEGF +LPS, VHH 1 µg/mL: 4700 MFI
  MHCII (MFI) on dendritic cells +VEGF +LPS, VHH 5 µg/mL: 5200 MFI
  MHCII (MFI) on dendritic cells +VEGF +LPS, VHH 10 µg/mL: 17000 MFI
GST-hVEGF121 [6]
  EC50: 0.00445 µM
GST-hVEGF121 [7]
  IC50: 0.0286 µM
Recombinant human bFGF [8]
  binding result: no binding
[9]
  IC50: 0.0675 µM
GST-hVEGF121 [10]
  fold lower EC50 than Nb-E7: 3 fold
GST-hVEGF121 [11]
  EC50: 0.00473 µM

B2: Nb-F3 (VHH)
VHH: QVQLVESGGGLVQPGGSLRLSCAASGTEDGRLLTLGGSWFRQAPGQGLEAVAAIGAGDRGGATYYADSVKGRFTISRDNSKNTLYLQMNSLRAEDTAVYYCTALYERQPQLAATKVARKWGQGTLVTVSS
notes: carries the C-terminal c-myc tracer peptide and histidine tag; also called VHH Nb-F3
Recombinant human bFGF [12]
  EC50: 0.0113 µM
[1]
  IC50, proliferation of HDMEC cells +bFGF (10 ng/ml): 0.121 µM
[2]
  IC50, proliferation of HDMEC cells +VEGF (5 ng/ml): > 6 µM
Recombinant human bFGF [13]
  IC50: 0.134 µM
Recombinant human bFGF [14]
  fold increase in recognition against Nb-A5: 5 fold
GST-hVEGF121 [15]
  binding result: no binding
Mouse bFGF
  EC50: 0.0115 µM
